From patent US20220195049A1 (Scripps Research, published 2022)
Numbering of substitutions follows the chain as printed.

B1: KL001-13 (antibody, human IgG1, kappa, V domains shown)
VH: QVQLVESGAEVKKPGSSVKVSCKASGGTFSSYAISWVRQAPGQGLEWMGRIIPILGIANYAQKFQGRVTVTADKSTSTAYMELSSLRSEDTAVYYCARSGYGYAYGSFDYWGQGTLVTVSS
VL: QLVLTQPPSVSGAPGQTVTISCTGQTIGAGYDVHWYQQLPGAAPKLLIYGNLNRPSGVPDRFSGSKSGTSASLAITDLQAEDEADYYCQSYDSRLGVVFGGGTKLTVLR
notes: also called KL001-13 candidate antibody
B2: KL001-08 (antibody, V domains shown)
VH: B1 VH with S31G, I54A
VL: QLVLTQPPSVSGAPGQTVTISCTGPTIGAGYDVHWYQQLPGAAPKLLIYGNLNRPSGVPDRFSGSKSGTSASLAITDLQAEDEADYYCQSYDSTHGVVFGGGTKLTVL
notes: In the Biacore assay it was captured by anti-human IgG (Fc), so it carried a human Fc there; also called KL001-8
B3: KL001 (PL110) (antibody, V domains shown)
VH: B1 VH with G102S
VL: B1 VL with Q25P
notes: IgG (VH-CH1-hinge-CH2-CH3 and VL-Ck); also called KL001 clone
B4: KL001-16 (antibody, V domains shown)
VH: B1 VH
VL: B2 VL with T94R, H95L
B5: KL001-02 (antibody, V domains shown)
VH: B1 VH with Y101H
VL: B2 VL with A29Q, T94R, H95L
B6: KL001-04 (antibody, V domains shown)
VH: B1 VH with D109A, Y110A
VL: B2 VL with H95L
B7: KL001-06 (antibody, V domains shown)
VH: B1 VH with Y110V
VL: B2 VL with T94R, H95L
B8: KL001-07 (antibody, V domains shown)
VH: B1 VH with I51Q
VL: B2 VL with T94R, H95L
B9: KL001-09 (antibody, V domains shown)
VH: B1 VH with G56Q
VL: B2 VL with T26P, H95P
B10: KL001-10 (antibody, V domains shown)
VH: B1 VH
VL: B2 VL with S93Q, H95L
B11: KL001-11 (antibody, V domains shown)
VH: B1 VH
VL: B2 VL with S93R, H95L
B12: KL001-12 (antibody, V domains shown)
VH: B1 VH
VL: B2 VL with T94A, H95L
B13: KL001-14 (antibody, V domains shown)
VH: B1 VH with G106Q
VL: B2 VL with T26Q, T94R, H95L
B14: KL001-15 (antibody, V domains shown)
VH: B1 VH
VL: B2 VL with G28Q, T94R, H95L
B15: KL001-17 (antibody, V domains shown)
VH: B1 VH
VL: B2 VL with T26V, T94R, H95L
B16: KL001-18 (antibody, V domains shown)
VH: B1 VH
VL: B2 VL with P25Q, H95E
B17: KL001-19 (antibody, V domains shown)
VH: B1 VH
VL: B2 VL with H95V
B18: KL001-20 (antibody, V domains shown)
VH: B1 VH with L55M
VL: B2 VL with H95L
B19: KL001-21 (antibody, V domains shown)
VH: B1 VH with I54V
VL: B2 VL with S90A, H95L
B20: KL001-22 (antibody, V domains shown)
VH: B1 VH with I52S
VL: B2 VL with H95L
B21: KL001-23 (antibody, V domains shown)
VH: B1 VH with S107V, Y110H
VL: B2 VL with T94R, H95L
B22: KL001-24 (antibody, V domains shown)
VH: B1 VH with I57Q
VL: B2 VL with Y31F, T94R, H95L
B23: KL001-26 (antibody, V domains shown)
VH: B1 VH
VL: B2 VL with A29Q, T94R, H95L
B24: KL001-27 (antibody, V domains shown)
VH: B1 VH
VL: B2 VL with P25Q, H95D

The binders below were run against T1, mouse PD-L1 antigen protein (mouse, UniProt Q9EP73 19-238, limits assumed) (assay: SPR (Biacore T200), antibody captured by anti-human IgG (Fc), PD-L1 as analyte, 1:1 model).
T1 sequence (Q9EP73 19-238 limits assumed): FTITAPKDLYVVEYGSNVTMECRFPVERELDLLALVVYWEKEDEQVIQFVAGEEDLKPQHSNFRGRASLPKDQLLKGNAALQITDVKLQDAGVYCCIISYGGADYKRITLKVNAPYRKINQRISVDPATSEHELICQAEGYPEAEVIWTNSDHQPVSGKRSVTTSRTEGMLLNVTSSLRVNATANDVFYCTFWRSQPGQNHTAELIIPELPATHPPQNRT
Experimental: (§1) 3) In order to remove the bound antibody every cycle, a regeneration solution (3 M MgCl₂) was injected at a flow rate of 30 μl/min for 30 seconds, and the experimental data were obtained using a 1:1 binding model of BIA evaluation software version 1.0.

**Q.** With B1 as the binder, how does the Kd read?
**A.** ~2.8 nM

**Q.** How did the Kd turn out when B2 was run?
**A.** 6.4 nM

Each binder was assayed against T2, human PD-L1 antigen protein (Sino Biological) (human, UniProt Q9NZQ7 19-238) in the same assay as above.
T2 construct: Bought from Sino Biological
T2 sequence (Q9NZQ7 19-238 limits assumed): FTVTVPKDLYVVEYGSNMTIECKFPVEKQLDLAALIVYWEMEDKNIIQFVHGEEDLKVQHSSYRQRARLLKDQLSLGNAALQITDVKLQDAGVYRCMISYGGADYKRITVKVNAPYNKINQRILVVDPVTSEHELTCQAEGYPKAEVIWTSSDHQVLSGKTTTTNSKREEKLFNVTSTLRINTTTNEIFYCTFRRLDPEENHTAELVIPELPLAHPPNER
Experimental: as §1

**Q.** B1 was tested. Which Kd did it give?
**A.** ~0.0632 nM

**Q.** For B2, which Kd is on record?
**A.** 0.0671 nM

Each binder was assayed against T2, human PD-L1 antigen protein (Sino …) (assay: SPR (Biacore T200), antibody captured by anti-human IgG (Fc) on a CM5 chip, hPD-L1 as analyte, 1:1 binding model).
Experimental: as §1

**Q.** Which koff does the source give for B1 here?
**A.** 0.000319 s⁻¹

**Q.** And the kon?
**A.** 5.05e+06 M⁻¹ s⁻¹

**Q.** With B2 as the binder, how does the koff read?
**A.** 0.000277 s⁻¹

**Q.** What about the kon of the same binder?
**A.** 4.13e+06 M⁻¹ s⁻¹

These binders were tested against T3, mouse PD-L1 on IFN-gamma-treated MC38 murine colon cancer cells (mouse, UniProt Q9EP73 19-290) (assay: the sentence names no assay).
T3 construct: whole, on cells; also called mouse PD-L1 protein
T3 sequence (Q9EP73 19-290): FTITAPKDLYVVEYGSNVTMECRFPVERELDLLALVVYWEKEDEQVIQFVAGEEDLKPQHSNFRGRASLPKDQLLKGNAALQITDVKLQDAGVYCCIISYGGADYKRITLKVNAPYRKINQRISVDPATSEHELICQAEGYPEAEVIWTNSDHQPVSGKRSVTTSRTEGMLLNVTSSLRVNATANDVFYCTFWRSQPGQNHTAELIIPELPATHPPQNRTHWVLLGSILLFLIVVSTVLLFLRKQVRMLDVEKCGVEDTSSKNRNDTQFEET

**Q.** Does B3 bind?
**A.** binds

Each binder was assayed against T4, PD-L1-Fc (PD-L1 antigen protein, extracellular region Met1-Thr239 fused to human Fc) (human, UniProt Q9NZQ7 19-239) (assay: BLI (Octet); PD-1-coated biosensor dipped in a mix of PD-L1 antigen protein and antibody; KD from the Octet software).
T4 construct: range 1-239; the secreted protein lacks it; also called PD-L1-Fc antigen; pCEP4-PDL1-Fc product; not shown: human Fc fragment of the pCEP4-Fc vector
T4 sequence (Q9NZQ7 19-239): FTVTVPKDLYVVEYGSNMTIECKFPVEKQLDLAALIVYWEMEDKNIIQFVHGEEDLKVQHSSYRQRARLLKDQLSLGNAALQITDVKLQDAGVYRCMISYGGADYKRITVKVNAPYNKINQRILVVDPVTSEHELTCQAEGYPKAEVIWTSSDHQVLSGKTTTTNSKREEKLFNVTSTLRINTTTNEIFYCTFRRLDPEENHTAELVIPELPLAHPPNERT

**Q.** B3 was tested. Which Kd did it give?
**A.** 0.0584 nM

**Q.** How did the Kd turn out when B1 was run?
**A.** 0.00488 nM

**Q.** For B4, which Kd is on record?
**A.** 0.00908 nM

**Q.** For B5, which Kd is on record?
**A.** 0.0216 nM

**Q.** With B6 as the binder, how does the Kd read?
**A.** 0.0136 nM

**Q.** B7 was tested. Which Kd did it give?
**A.** 0.0169 nM

**Q.** B8 was tested. Which Kd did it give?
**A.** 0.0137 nM

**Q.** Which Kd does the source give for B2 here?
**A.** 0.0142 nM

**Q.** How did the Kd turn out when B9 was run?
**A.** 0.0216 nM

**Q.** B10 was tested. Which Kd did it give?
**A.** 0.0201 nM

**Q.** With B11 as the binder, how does the Kd read?
**A.** 0.0163 nM

**Q.** B12 was tested. Which Kd did it give?
**A.** 0.015 nM

**Q.** B13 was tested. Which Kd did it give?
**A.** 0.0204 nM

**Q.** For B14, which Kd is on record?
**A.** 0.0058 nM

**Q.** Which Kd does the source give for B15 here?
**A.** 0.0183 nM

**Q.** Which Kd does the source give for B16 here?
**A.** 0.0161 nM

**Q.** B17 was tested. Which Kd did it give?
**A.** 0.00655 nM

**Q.** For B18, which Kd is on record?
**A.** 0.0213 nM

**Q.** B19 was tested. Which Kd did it give?
**A.** 0.0283 nM

**Q.** Which Kd does the source give for B20 here?
**A.** 0.049 nM

**Q.** How did the Kd turn out when B21 was run?
**A.** 0.0267 nM

**Q.** With B22 as the binder, how does the Kd read?
**A.** 0.0408 nM

**Q.** How did the Kd turn out when B23 was run?
**A.** 0.0572 nM

**Q.** Which Kd does the source give for B24 here?
**A.** 0.0612 nM

The binders below were run against T1, mouse PD-L1 antigen protein (assay: SPR (Biacore T200), antibody captured by anti-human IgG (Fc) on a CM5 chip, mPD-L1 as analyte, 1:1 binding model).
Experimental: as §1

**Q.** How did the koff turn out when B1 was run?
**A.** 0.00878 s⁻¹

**Q.** What about the kon of the same binder?
**A.** 3.14e+06 M⁻¹ s⁻¹

**Q.** B2 was tested. Which koff did it give?
**A.** 0.0106 s⁻¹

**Q.** And the kon?
**A.** 1.65e+06 M⁻¹ s⁻¹

The binders below were run against human PD-L1 expressed on the cell surface (human, UniProt Q9NZQ7 19-290) (assay: cell-based or functional assay).
Chain of human PD-L1 expressed on the cell surface (Q9NZQ7 19-290): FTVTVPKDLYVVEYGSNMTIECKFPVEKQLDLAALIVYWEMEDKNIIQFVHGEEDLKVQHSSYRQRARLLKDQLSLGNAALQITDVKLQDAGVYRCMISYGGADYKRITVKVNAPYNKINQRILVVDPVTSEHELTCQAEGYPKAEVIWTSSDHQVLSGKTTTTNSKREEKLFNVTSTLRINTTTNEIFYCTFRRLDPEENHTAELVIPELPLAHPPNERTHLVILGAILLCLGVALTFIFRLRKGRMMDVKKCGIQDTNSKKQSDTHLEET

**Q.** How did the “PD-1/PD-L1 binding inhibitory performance relative to 100% of the MK3475 antibody (Promega PD-1/PD-L1 Blockade Bioassay)” value turn out when B3 was run?
**A.** 89%
